Patent publication US11629364B2, “Methods for synthesizing anticoagulant polysaccharides” (OPTIMVIA, LLC, priority 2019, dated 2023)

Assay: NST activity: N-sulfated products detected by SAX-HPLC after lyase digestion
Type: biochemical
Conditions: for NST sulfotransferase activity with aryl sulfate compounds: PNS or NCS as sulfo donor, N-deacetylated heparosan acceptor, 37° C. overnight; for NST activity: N-sulfated products by SAX: procedures of Example 2, expected
Description: A study was conducted in accordance with embodiments of the present disclosure to confirm NST activity of enzymes comprising the amino acid sequence of SEQ ID NO: 2, SEQ ID NO: 4, SEQ ID NO: 6, SEQ ID NO: 8, SEQ ID NO: 10, or SEQ ID NO: 12 by detecting the presence of N-sulfated polysaccharide products formed as a result of their sulfotransfer reaction, using mass spectrometry (MS). Each engineered enzyme was purified according to the procedure of Example 1. Sulfotransferase activity was monitored in 100 μL reactions containing 50 μM of enzyme. To each purified protein solution, 20 mg of an aryl sulfate compound (either PNS or NCS) was dissolved in 2 mL of reaction buffer (50 mM IVIES pH 7.0, 2 mM CaCl2)), added to the protein solution, and incubated at 37° C. for 10 min. 2.5 mL of 2 mg/mL solution of N-deacetylated heparosan was added to protein/donor solution and incubated overnight at 37° C. The N-deacetylated heparosan was synthesized according to the protocol described in Balagurunathan, K. et al (eds.) (2015), Glycosaminoglycans: Chemistry and Biology, Methods in Molecular Biology, vol. 1229, DOI 10.1007/978-1-4939-1714-3_2, ©Springer Science+Business Media, New York, pp. 11-19 (section 3.1). To purify the N-sulfated product, the incubated reaction mixture was centrifuged the following day at 5,000×g for 10 min. The filter was washed once with 2 mL water, and centrifuged again. The filtrate was added to a 1K MWCO Dialysis membrane, dialyzed for 2 days in Milli-Q water, with water changes at 1 h, 2 h, 8 h, 16 h, 32 h, and then lyophilized.
The lyophilized N-sulfated products from each reaction were subsequently digested with a mixture of three carbon-oxygen lyases comprising the amino acid sequences of SEQ ID NO: 30, SEQ ID NO: 31, and SEQ ID NO: 32, which catalyze the β-eliminative cleavage of heparosan-based polysaccharides. Such lyases are available from New England Biolabs, among other chemical and biological commercial entities. 1 μL of each lyase was incubated with 50 μg of the lyophilized sulfated polysaccharide product and the provided digestion buffer, and incubated over 24 hours according to the packaged instructions provided by New England Biolabs with each lyase. After digestion, the lyase enzymes were inactivated by heating to 100° C. for 5 minutes. Samples were centrifuged at 14,000 rpm for 30 minutes before introduction to a strong anion exchange, high performance liquid chromatography (SAX) analysis. SAX analysis was performed on a Dionex Ultimate 3000 LC system interface. Separation was carried out on a 4.6×250 mm Waters Spherisorb analytical column with 5.0 μm particle size at 45° C. Mobile phase solution A was 2.5 mM sodium phosphate, pH 3.5, while mobile phase solution B was 2.5 mM sodium phosphate, pH 3.5, and 1.2 M Sodium perchlorate. After each sample was loaded onto the column, mobile phase solutions were applied to the column at a ratio of 98% mobile phase solution A and 2% mobile phase solution B for five minutes at a flow rate of 1.4 mL/min. After five minutes, a linear gradient of increasing mobile phase solution B was applied until the ratio of mobile phase solution A to mobile phase solution B was 50:50.

B1: SEQ ID NO: 10: engineered aryl sulfate-dependent NST enzyme, mutant of N-sulfotransferase domain of human NDST (protein)
chain: MSEEKDPLWQDPCEDKRHKDIWSKEKTCDRFPKLLIIGPHKTGVHALYLFLGMHPDLSSNYPSSETGNHIGFFGGHNYHKGIDWYMEFFPIPSNTTSDFYFEKSAWYFDSEVAPRRAAALLPKAKVLTILINPADRAYSWYQHQRAHDDPVALKYTFHEVITAGSDASSKLRALQNRCLVPGWYATHIERWLSAYHANQILVLDGKLLRTEPAKVMDMVQKFLGVTNTIDYHKTLAFDPKKGFWCQLLEGGKTKCLGKSVGRKYPEMDLDSRAFLKDYYRDHNIELSKLLYKMGQTLPTWLREDLQNTR
modifications: Amino acid sequence encoding for engineered arylsulfate-dependent N-sulfotransferase variant 5
notes: engineered aryl sulfate-dependent NST enzyme, mutant of N-sulfotransferase domain of human NDST
NST sulfotransferase activity with aryl sulfate compounds: activity with NCS only

B2: SEQ ID NO: 2: engineered aryl sulfate-dependent NST enzyme, mutant of N-sulfotransferase domain of human NDST (protein)
chain: MSEEKDPLWQDPCEDKRHKDIWSKEKTCDRFPKLLIIGPQKTGAWALYHFLGMHPDLSSNYPSSETHGSIQFFNGHNYHKGIDWYMEFFPIPSNTTSDFYFEKSANYFDSEVAPRRAAALLPKAKVLTILINPADRAYSWYQHQRAHDDPVALKYTFHEVITAGSDASSKLRALQNRCLVPGWYATHIERWLSAYHANQILVLDGKLLRTEPAKVMDMVQKFLGVTNTIDYHKTLAFDPKKGFWCQLLEGGKTKCLGKSHGRKYPEMDLDSRAFLKDYYRDHNIELSKLLYKMGQTLPTWLREDLQNTR
modifications: Amino acid sequence encoding for engineered arylsulfate-dependent N-sulfotransferase variant 1
notes: as for B1
NST sulfotransferase activity with aryl sulfate compounds: activity with NCS only

B3: SEQ ID NO: 12: engineered aryl sulfate-dependent NST enzyme, mutant of N-sulfotransferase domain of human NDST (protein)
chain: MSEEKDPLWQDPCEDKRHKDIWSKEKTCDRFPKLLIIGPAKTGAWLLHHFLGMHPDLSSNYPSSETHSSIQFFNGHNYHKGIDWYMEFFPIPSNTTSDFYFETSANYFDSEVAPRRAAALLPKAKVLTILINPADRAYSWYQHQRAHDDPVALKYTFHEVITAGSDASSKLRALQNRCLVPGWYATHIERWLSAYHANQILVLDGKLLRTEPAKVMDMVQKFLGVTNTIDYHKTLAFDPKKGFWCQLLEGGKTKCAHKGLGRKYPEMDLDSRAFLKDYYRDHNIELSKLLYKMGQTLPTWLREDLQNTR
modifications: Amino acid sequence encoding for engineered arylsulfate-dependent N-sulfotransferase variant 6
notes: as for B1
NST sulfotransferase activity with aryl sulfate compounds: activity with PNS only

B4: SEQ ID NO: 35: mutant of N-sulfotransferase domain of pig NDST carrying the SEQ ID NO: 2 mutations (protein)
chain: MSEEKDPLWQDPCEDKRHKDIWSKEKTCDRFPKLLIIGPQKTGAWALYHFLGLHPDLSSNYPSSETHGSIQFFNGHNYHKGIDWYMDFFPIPSNTTSDFYFEKSANYFDSDVAPRRAAALLPKAKVLTILINPADRAYSWYQHQRAHDDPAALRYTFHEVITAGPDASLKLRALQNRCLVPGWYATHLERWLGAFHANQILVLDGKLLRTEPARVMDTVQKFLGVTNTIDYHKTLAFDPKKGFWCQLLEGGKTKCLGRSHGRKYPDMDPDSRAFLRDYYRDHNIELSKLLYKMGQTLPTWLREELQNTR
modifications: Amino acid sequence encoding for engineered arylsulfate-dependent N-sulfotransferase variant 9
NST activity: N-sulfated products by SAX: confirm the presence of N-sulfated polysaccharide products

B5: SEQ ID NO: 8: engineered aryl sulfate-dependent NST enzyme, mutant of N-sulfotransferase domain of human NDST (protein)
chain: MSEEKDPLWQDPCEDKRHKDIWSKEKTCDRFPKLLIIGPHGTGGHALYLFLGMHPDLSSNYPSSETFLSIQFFNGHNYHKGIDWYMEFFPIPSNTTSDFYFEHSGNYFDSEVAPRRAAALLPKAKVLTILINPADRAYRAYVWQRAHDDPVALKYTFHEVITAGSDASSKLRALQNRCLVPGWYATHIERWLSAYHANQILVLDGKLLRTEPAKVMDMVQKFLGVTNTIDYHKTLAFDPKKGFWCQLLEGGKTKCLGKSLGSKYPEMDLDSRAFLKDYYRDHNIELSKLLYKMGQTLPTWLREDLQNTR
modifications: Amino acid sequence encoding for engineered arylsulfate-dependent N-sulfotransferase variant 4
notes: as for B1
NST sulfotransferase activity with aryl sulfate compounds: activity with both aryl sulfate compounds

B6: SEQ ID NO: 4: engineered aryl sulfate-dependent NST enzyme, mutant of N-sulfotransferase domain of human NDST (protein)
chain: MSEEKDPLWQDPCEDKRHKDIWSKEKTCDRFPKLLIIGPSKTGAFLLTHFLGMHPDLSSNYPSSETGHSIQFFNGHNYHKGIDWYMEFFPIPSNTTSDFYFETSSNYFDSEVAPRRAAALLPKAKVLTILINPADRAYSWYQHQRAHDDPVALKYTFHEVITAGSDASSKLRALQNRCLVPGWYATHIERWLSAYHANQILVLDGKLLRTEPAKVMDMVQKFLGVTNTIDYHKTLAFDPKKGFWCQLLEGGKTKCHGKRWGRKYPEMDLDSRAFLKDYYRDHNIELSKLLYKMGQTLPTWLREDLQNTR
modifications: Amino acid sequence encoding for engineered arylsulfate-dependent N-sulfotransferase variant 2
notes: as for B1
NST sulfotransferase activity with aryl sulfate compounds: activity with NCS only

B7: SEQ ID NO: 6: engineered aryl sulfate-dependent NST enzyme, mutant of N-sulfotransferase domain of human NDST (protein)
chain: MSEEKDPLWQDPCEDKRHKDIWSKEKTCDRFPKLLIIGPHGTGGHALYLFLGMHPDLSSNYPSSETGEEIQFFNGHNYHKGIDWYMEFFPIPSNTTSDFYFEKSANYFDSEVAPRRAAALLPKAKVLTILINPADRAYSWYQAQRAHDDPVALKYTFHEVITAGSDASSKLRALQNRCLVPGWYATHIERWLSAYHANQILVLDGKLLRTEPAKVMDMVQKFLGVTNTIDYHKTLAFDPKKGFWCQLLEGGKTKCGGKHLGRKYPEMDLDSRAFLKDYYRDHNIELSKLLYKMGQTLPTWLREDLQNTR
modifications: Amino acid sequence encoding for engineered arylsulfate-dependent N-sulfotransferase variant 3
notes: as for B1
NST sulfotransferase activity with aryl sulfate compounds: activity with both aryl sulfate compounds

B8: SEQ ID NO: 36: mutant of N-sulfotransferase domain of pig NDST carrying the SEQ ID NO: 4 mutations (protein)
chain: MSEEKDPLWQDPCEDKRHKDIWSKEKTCDRFPKLLIIGPSKTGAFLLTHFLGLHPDLSSNYPSSETGHSIQFFNGHNYHKGIDWYMDFFPIPSNTTSDFYFETSSNYFDSDVAPRRAAALLPKAKVLTILINPADRAYSWYQHQRAHDDPAALRYTFHEVITAGPDASLKLRALQNRCLVPGWYATHLERWLGAFHANQILVLDGKLLRTEPARVMDTVQKFLGVTNTIDYHKTLAFDPKKGFWCQLLEGGKTKCHGRRWGRKYPDMDPDSRAFLRDYYRDHNIELSKLLYKMGQTLPTWLREELQNTR
modifications: Amino acid sequence encoding for engineered arylsulfate-dependent N-sulfotransferase variant 10
NST activity: N-sulfated products by SAX: confirm the presence of N-sulfated polysaccharide products
